Laboratory results taken from patent US20070178095A1 (Eli Lilly, published 2007).
Blank lines part the entries; values can stand above or below the binder they belong to.

Legend:
[1] = biological target: T1, peptide immunogen ANYCSGESEFVFLQKYPHTHLVHQA (human); assay: ELISA, peptide coated at 2 ug/ml, Fab 0.016-10 ug/ml
T1 construct: For immunization it was conjugated to KLH and a helper T-cell peptide; also called immunogenic peptide; immunogenic polypeptide
T1 peptide: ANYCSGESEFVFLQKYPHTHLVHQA
Procedure: Each well of two 96-well plates is coated with 70 μl of the peptide immunogen used to generate the Fabs (2 μg/ml in carbonate buffer, pH 9.6). The plates are incubated in a dry oven at 37° C. overnight with the lids removed. The wells are aspirated and washed twice with washing buffer (20 mM Tris (hydroxymethyl) aminomethane, pH 7.4, 0.15 M NaCl, 0.1% Tween-20). The plates are blocked with 200 μl blocking buffer per well (5% BioRad blotting grade milk in the above washing buffer) for 2.5 hours.
The Fabs are diluted into blocking buffer at 10 μg/ml, 2 μg/ml, 0.4 μg/ml, 0.08 μg/ml, and 0.016 μg/ml. A rat anti-myostatin monoclonal antibody (R&D Systems, catalog #MAB788, clone #84214) and a polyclonal anti-myostatin antibody (R&D Systems, catalog #AF788), are used as controls at the above concentrations and are also diluted in blocking buffer. Fifty microliters of each antibody solution is added to the peptide-coated wells in duplicate. The plates are incubated for 1.5 hours at room temperature. The wells are then washed 3 times with washing buffer.
Peroxidase-conjugated secondary antibody (50 μl goat anti-mouse kappa HRP (Southern Biotech) for Fabs, 50 μl mouse anti-rat (Jackson ImmunoResearch) for monoclonal, 50 μl rabbit anti-goat (Jackson ImmunoResearch) for polyclonal, all diluted 1:2000 in blocking buffer is added to each well and incubated for 1 hour at room temperature. The wells are then washed 3 times with washing buffer. Fifty microliters of chromogenic substrate (i.e., OPD substrate) is added to each well and allowed to develop at room temperature for 10 minutes. The reaction is stopped by adding 100 μl 1N HCl to each well. The absorbance of the wells is read at 490 nm.

[2] = biological target: T2, recombinant mouse myostatin (R&D systems, Cat. #788-G8/CF, carrier-free) (mouse, UniProt O08689 268-376); assay: ELISA, growth factor coated at 10 ug/ml, Fab at 10 ug/ml, mean of duplicate wells
T2 construct: mature; also called GDF-8; GDF-8/myostatin
T2 sequence (looked up): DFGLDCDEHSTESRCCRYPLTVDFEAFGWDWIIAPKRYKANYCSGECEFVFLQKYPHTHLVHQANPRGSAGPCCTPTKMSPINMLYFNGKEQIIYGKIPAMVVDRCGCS
Procedure: (§1) Peroxidase-conjugated secondary antibody (50 μl goat anti-mouse kappa HRP (Southern Biotech) for the Fabs, 50 μl rabbit anti-goat (Jackson ImmunoResearch) for the polyclonal, diluted 1:2000 in blocking buffer) is added to each well and incubated for 1 hour at room temperature. The wells are then washed 3 times with washing buffer. Fifty microliters of chromogenic substrate (i.e., OPD substrate) is added to each well and allowed to develop at room temperature for 10 minutes. The reaction is stopped by adding 100 μl 1N HCl to each well. The absorbance of the wells is read at 490 nm.

[3] = biological target: T3, recombinant human GDF-11 (Peprotech, Inc., Cat. # 120-11, carrier-free) (human, UniProt O95390 299-407); assay: as above
T3 construct: also called BMP-11
T3 sequence (looked up): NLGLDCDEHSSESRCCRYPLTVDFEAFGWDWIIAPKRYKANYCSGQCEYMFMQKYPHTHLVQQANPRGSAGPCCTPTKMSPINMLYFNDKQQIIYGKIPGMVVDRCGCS
Procedure: as §1

[4] = biological target: T4, IGF-1 (R&D Systems 291-G1) (UniProt P05019 49-118); assay: as above
T4 construct: Negative control antigen
T4 sequence (P05019 49-118 limits assumed): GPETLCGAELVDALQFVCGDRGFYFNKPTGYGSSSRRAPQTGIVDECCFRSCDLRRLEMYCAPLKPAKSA
Procedure: as §1

[5] = biological target: BMP-2 (R&D Systems 355-BEC/CF) (UniProt P12643 283-396); assay: as above
BMP-2 (R&D Systems 355-BEC/CF), sequence (P12643 283-396 limits assumed): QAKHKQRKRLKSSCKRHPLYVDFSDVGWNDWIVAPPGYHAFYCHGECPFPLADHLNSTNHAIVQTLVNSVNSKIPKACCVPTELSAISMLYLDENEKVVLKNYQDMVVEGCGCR
Procedure: as §1

[6] = biological target: T5, BMP-5 (R&D Systems 615-BM) (UniProt P22003 317-454, limits assumed); assay: as above
T5 sequence (looked up): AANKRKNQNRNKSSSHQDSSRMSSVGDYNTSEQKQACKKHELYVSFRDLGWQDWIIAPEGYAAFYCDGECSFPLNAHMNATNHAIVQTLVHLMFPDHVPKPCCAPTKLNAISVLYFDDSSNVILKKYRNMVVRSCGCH
Procedure: as §1

[7] = biological target: T6, BMP-6 (R&D Systems 507-BP) (UniProt P22004 382-513, limits assumed); assay: as above
T6 sequence (looked up): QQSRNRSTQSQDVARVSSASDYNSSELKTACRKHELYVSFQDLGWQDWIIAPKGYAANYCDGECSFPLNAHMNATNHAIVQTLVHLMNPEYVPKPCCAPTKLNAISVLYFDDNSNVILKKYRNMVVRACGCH
Procedure: as §1

[8] = biological target: T7, BMP-7 (R&D Systems 354-BP) (UniProt P18075 293-431); assay: as above
T7 sequence (looked up): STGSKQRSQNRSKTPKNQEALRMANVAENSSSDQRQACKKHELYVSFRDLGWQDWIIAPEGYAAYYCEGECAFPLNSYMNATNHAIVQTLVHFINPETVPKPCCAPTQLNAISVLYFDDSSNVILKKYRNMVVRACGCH
Procedure: as §1

[9] = biological target: T8, Activin A (R&D Systems 338-AC) (UniProt P08476 311-426); assay: as above
T8 sequence (looked up): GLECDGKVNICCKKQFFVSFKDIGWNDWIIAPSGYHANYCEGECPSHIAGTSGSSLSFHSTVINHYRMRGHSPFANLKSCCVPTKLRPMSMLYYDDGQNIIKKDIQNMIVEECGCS
Procedure: as §1

[10] = biological target: T9, Activin B (R&D Systems 659-AB) (UniProt P09529 293-407); assay: as above
T9 sequence (looked up): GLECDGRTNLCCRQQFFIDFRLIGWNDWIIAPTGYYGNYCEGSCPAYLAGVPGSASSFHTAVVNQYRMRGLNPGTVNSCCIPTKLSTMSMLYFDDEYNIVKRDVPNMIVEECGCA
Procedure: as §1

[11] = biological target: TGF-alpha (R&D Systems 239-A) (UniProt P01135 40-89); assay: as above
TGF-alpha (R&D Systems 239-A), sequence (P01135 40-89 limits assumed): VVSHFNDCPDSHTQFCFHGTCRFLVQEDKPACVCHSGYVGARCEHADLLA
Procedure: as §1

[12] = biological target: T10, TGF-beta1 (Peprotech, Inc. 100-21R) (UniProt P01137 279-390); assay: as above
T10 construct: also called TGF-b1
T10 sequence (P01137 279-390 limits assumed): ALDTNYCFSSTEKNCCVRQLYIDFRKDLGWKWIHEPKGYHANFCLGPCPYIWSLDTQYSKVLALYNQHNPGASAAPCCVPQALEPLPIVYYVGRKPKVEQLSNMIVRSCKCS
Procedure: as §1

[13] = biological target: T11, TGF-beta2 (Peprotech, Inc. 100-35) (UniProt P61812 303-414); assay: as above
T11 construct: also called TGF-b2
T11 sequence (looked up): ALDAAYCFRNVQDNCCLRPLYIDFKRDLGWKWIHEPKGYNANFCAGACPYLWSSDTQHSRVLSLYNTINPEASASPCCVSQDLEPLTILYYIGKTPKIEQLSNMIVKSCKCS
Procedure: as §1

B1: Fab 8 (Fab, V domains shown)
VH: QVTLKESGPGILQSSQTLSLTCSLSGFSLRTSGMSVSWIRQSSGKGLEWLAHIYWDDDKRYNPSLRNRLTISKDTLRNQVFLKITSVGTADTATYYCARRAITTVIGGGTMDYWGQGTSVTVSS
VL: QIVLTQSPAIMSASPGEKVTMTCSASSSVSYMHWYQQKSGTSPKRWIYDTSKLASGVPARFSGSGSGTSYSLTISSMEAEDAATYYCQQWSSNPLTFGAGTKLELKR
notes: Mouse Fab, kappa light chain; also called anti-myostatin Fab 8
binding result [1]: binds

B3: Fab 15 (Fab, V domains shown)
VH: QVTLKESGPGILQSSQTLSLTCSLSGFSLRTSGMSVSWIRQSSGKGLEWLAHIYWDDDKRYNPSLRNRLTISKDTLRNQVFLKITSVGTADTATYYCARRAITTVIGGGTMDYWGQGTSVTVSS
VL: QIVLTQSPAIMSASPGEEVTMTCSASSSINYMHWYQQKSGTSPKRWIYDTSKLASGVPARFSGSGSGTSYSLTISSMEAEDAATYYCQQWNSNPLTFGGGTKLELKR
notes: Mouse Fab, kappa light chain; also called anti-myostatin Fab 15
binding result [1]: binds

B5: Fab 3 (Fab, V domains shown)
VH: QVTLKESGPGILQSSQTLSLTCSLSGFSLRTSGMSVSWIRQSSGKGLEWLAHIYWDDDKRYNPSLRNRLTISKDTLRNQVFLKITSVGTADTATYYCARRAITTVIGGGTMDYWGQGTSVTVSS
VL: QIVLTQSPAIMSASPGEKVTMTCSASSSISYMHWYQQKPGTSPKRWIYDTSKLASGVPARFSGSGSGTSYSLTISSMEAEDAATYYCQQWYSNPLTFGAGTKLELKR
notes: Mouse Fab from a Biosite Omniclonal library, kappa light chain (detected or captured with goat anti-mouse kappa); also called anti-myostatin Fab 3
binding result [1]: binds | absorbance at 490 nm [2]: 0.419 OD 490 nm | absorbance at 490 nm [3]: 0.0705 OD 490 nm | absorbance at 490 nm [4]: 0.034 OD 490 nm | absorbance at 490 nm [5]: 0.0345 OD 490 nm | absorbance at 490 nm [6]: 0.034 OD 490 nm | absorbance at 490 nm [7]: 0.0335 OD 490 nm | absorbance at 490 nm [8]: 0.033 OD 490 nm | absorbance at 490 nm [9]: 0.033 OD 490 nm | absorbance at 490 nm [10]: 0.032 OD 490 nm | absorbance at 490 nm [11]: 0.033 OD 490 nm | absorbance at 490 nm [12]: 0.034 OD 490 nm | absorbance at 490 nm [13]: 0.034 OD 490 nm

B8: Fab 12 (Fab, V domains shown)
VH: QVTLKESGPGMLQSSQTLSLTCSLSGFSLRTSGMSVSWIRQSSGKGLEWLAHIYWDDDKRYNPSLRNRLTISKDTLRNQVFLKITSVGTADTATYYCARRAITTVIGGGTMDYWGQGTSVTVSS
VL: QVVLTQSPAIMSASPGEKVTMTCSASSSVYYMHWYQQRSGASPKRWIYDTSKLASGVPARFSGSGSGTSYSLTISSMEAEDAATYYCQQWTYNPLTFGAGTKLELKR
notes: Mouse Fab, kappa light chain; also called anti-myostatin Fab 12
binding result [1]: binds

Continued, values first:

absorbance at 490 nm [2]: 0.358 OD 490 nm | absorbance at 490 nm [3]: 0.04 OD 490 nm | absorbance at 490 nm [4]: 0.034 OD 490 nm | absorbance at 490 nm [5]: 0.0335 OD 490 nm | absorbance at 490 nm [6]: 0.0345 OD 490 nm | absorbance at 490 nm [7]: 0.035 OD 490 nm | absorbance at 490 nm [8]: 0.031 OD 490 nm | absorbance at 490 nm [9]: 0.0325 OD 490 nm | absorbance at 490 nm [10]: 0.031 OD 490 nm | absorbance at 490 nm [11]: 0.0315 OD 490 nm | absorbance at 490 nm [12]: 0.032 OD 490 nm | absorbance at 490 nm [13]: 0.0345 OD 490 nm
B2: Fab 7 (Fab, V domains shown)
VH: QVTLKSGPGILQSSQTLTLTCSLSGFSLTTSGMIVSWIRQSSGRGLEWLAHIYWDDDKRYNPSLRNRLTISKDTLRNQVFLWISSVGTADTATYYCARRAITTVIGGGTMDYWGQGTSVTVSS
VL: QIVLTQSPAIMSASPGEKVTMTCSASSSISYMHWYQQKPGTSPKRWIYDTSKLASGVPARFSGSGSGTSYSLTISSMEAEDAATYYCQQWYSNPLTFGAGTKLELKR
notes: Mouse Fab, kappa light chain; also called anti-myostatin Fab 7

binding result [1]: binds
B4: Fab 11 (Fab, V domains shown)
VH: QVTLKESGPGILQSSQTLSLTCSLSGFSLRTSGMSVSWIRQSSGKGLEWLAHIYWDDDKRYNPSLRNRLTISKDTLRNQVFLKITSVGTADTATYYCARRAITTVIGGGTMDYWGQGTSVTVSS
VL: QIVLTQSPAIMSASPGEKVTMTCSASSSISYMHWYQQKPGTSPKRWIYDTSKLASGVPARFSGSGSGTSYSLTISSMEAEDAATYYCQQWNSNPLTFGAGTKLELKR
notes: Mouse Fab, kappa light chain; also called anti-myostatin Fab 11

binding result [1]: binds
B6: Fab 10 (Fab, V domains shown)
VH: QVTLKESGPGILQPSQTLSLTCSLSGFSLRTSGMSVSWIRQSSGKGLEWLAHIYWDDDERYNPSLRNRLTISKDTLRNQVFLKITSVGTADTATYYCARRAITTVIGGGTMDYWGQGTSVTVSS
VL: QVVLTQSPAIMSASPGEKVTMTCSASSSISYMHWYQQKPGTSPKRWIYDTSKLASGVPARFSGSGSGTSYSLTISSMEAEDAATYYCQQWYSNPLTFGAGTKLELKR
notes: Mouse Fab, kappa light chain; also called anti-myostatin Fab 10

binding result [1]: binds
B7: Fab 14 (Fab, V domains shown)
VH: QVTLKESGPGILQSSQTLSLTCSLSGFSLRTSGMSVSWIRQSSGKGLEWLAHIYWDDDKRYNPSLRNRLTISKDTLRNQVFLKITSVGTADTATYYCARRAITTVIGGGTMDYWGQGTSVTVSS
VL: QIVLTQSPAIMSASPGEKVTMTCSASSSVSYMHWYQQKPGTSPKRWIYDTSKLASGVPARFSGSGSGTSYSLTISSMEAEDAATYYCQQWYSNPLTFGAGTKLELKR
notes: Mouse Fab, kappa light chain; also called anti-myostatin Fab 14
